According to article PMC3506534, “LL-37 Induces Polymerization and Bundling of Actin and Affects Actin Structure” (PLoS ONE, 2012):

Target: rabbit skeletal muscle α-actin (rabbit, UniProt P68135 1-377)
Assay: SPR; BIACORE 3000; actin (10 µg/ml) amine-coupled to a CM5 chip, 1500-1800 RU; running buffer 10 mM HEPES pH 7.4, 150 mM NaCl, 0.005% tween 20; 25°C, 40 µl/min; LL-37 0-500 nM, 1:1 Langmuir model; sLL-37 0-2500 nM, steady state affinity model
Conditions: both partners purified

B1: scrambled LL-37 (peptide)
peptide: GLKLRFEFSKIKGEFLKTPEVRFRDIKLKDNRISVQR
notes: scrambled order of the residues of LL-37; same net number of positive charges; also called sLL-37; source: bought: Genemed Synthesis Inc; purified by HPLC, purity greater than 90%
In the case of B1, the Kd is reported as 138 µM.
